From patent publication US20110183917A1 (UNIVERSITY OF MARYLAND BALTIMORE, published 2011)

T1: synMDMX (synthetic MDMX comprising amino acids 24-108 of the full length MDMX protein) (human, UniProt O15151 24-108)
T1 construct: range 24-108; A biotinylated form was the bait in the phage selections; also called MDM4; biotin-synMDMX
T1 sequence (looked up): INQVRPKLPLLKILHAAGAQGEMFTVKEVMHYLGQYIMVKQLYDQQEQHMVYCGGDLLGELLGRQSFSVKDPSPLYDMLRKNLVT


Experiments:
[1] = target: T1, synMDMX (synthetic MDMX comprising …); assay: phage display selection, peptide on M13 pIII, biotin-synMDMX as bait
[2] = target: T2, synMDM2 (synthetic MDM2 comprising amino acids 25-109 of the full length MDM2 protein) (human, UniProt Q00987 25-109); assay: phage display selection, peptide on M13 pIII, biotin-synMDM2 as bait
T2 construct: range 25-109; A biotinylated form (biotin-synMDM2) was the bait in the phage selections; also called biotin-synMDM2

[3] = target: T1, synMDMX (synthetic MDMX comprising …); assay: SPR competition, immobilized 15-29p53

T2 sequence (Q00987 25-109 limits assumed): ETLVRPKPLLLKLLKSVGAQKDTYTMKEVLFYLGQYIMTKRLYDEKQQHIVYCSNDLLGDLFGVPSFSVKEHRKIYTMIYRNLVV

| Binder | binding result [1] | binding result [2] | fold lower affinity than 15-29p53 [3] [fold] |
| --- | --- | --- | --- |
| DDWFQRVWSPLM (Reported only as a phage clone: the 12-mer was fused through a GlyGlyGlySer spacer to the N-terminus of M13 pIII) [L-PMI-2] | binds | binds | – |
| CYSFDCLWKCLAMGFSSGKCINSKCKC (designed binder, also called L-Stoppin-1) [stoppin-1] | – | – | ~4 |
